Reference: the Human Domainome abundance scans (Beltran et al. 2025)
± gives the uncertainty stated by the source.

B1: Segment polarity protein dishevelled homolog DVL-3, residues 2 to 81; numbered along this chain, Q92997 (parent)
chain: GETKIIYHLDGQETPYLVKLPLPAERVTLADFKGVLQRPSYKFFFKSMDDDFGVVKEEISDDNAKLPCFNGRVVSWLVSA

Variants of: B1
Experiment: abundance fitness (aPCA) (normalised: wild type 0, dead -1); higher = more abundant; growth selection in yeast, the domain comes from the species named
Details: Homo sapiens

Abundance fitness, by site and new letter:
L66: M -0.664 ± 0.13 | H -0.475 ± 0.17 | I -0.461 ± 0.19 | E -0.493 ± 0.085 | F -0.461 ± 0.16 | C -0.923 ± 0.19 | R -0.706 ± 0.067 | K -0.644 ± 0.11 | D -1.44 ± 0.42 | N -0.825 ± 0.24 | P -0.588 ± 0.098 | T -0.772 ± 0.14 | A -0.822 ± 0.12 | Y -0.508 ± 0.14 | G -0.789 ± 0.076 | V -0.864 ± 0.11 | S -0.747 ± 0.09
K65: C -0.183 ± 0.13 | D -0.914 ± 0.22 | E -0.821 ± 0.14 | S -0.195 ± 0.068 | F -0.284 ± 0.15 | M -0.264 ± 0.12 | L -0.005 ± 0.06 | Q 0.127 ± 0.074 | G -0.47 ± 0.071 | N -0.139 ± 0.12 | I 0.263 ± 0.1 | Y 0.093 ± 0.11 | H 0.091 ± 0.16 | P -0.135 ± 0.066 | V 0.072 ± 0.059 | R -0.032 ± 0.049
V74: Y 0.236 ± 0.05 | N -0.511 ± 0.092 | K -0.953 ± 0.24 | G -0.716 ± 0.1 | C -0.658 ± 0.12 | D -0.593 ± 0.12 | R -0.446 ± 0.1 | M -0.198 ± 0.14 | Q -0.777 ± 0.31 | A -0.585 ± 0.15 | F -0.066 ± 0.056 | P -0.981 ± 0.27 | E 0.195 ± 0.099 | L -0.427 ± 0.088 | W -0.243 ± 0.12 | H -0.249 ± 0.083
A80: R -0.164 ± 0.14 | L -0.239 ± 0.13 | Q -0.029 ± 0.29 | N 0.11 ± 0.095 | K 0.212 ± 0.21 | F -0.098 ± 0.14 | H -0.089 ± 0.15 | D 0.267 ± 0.086 | V -0.105 ± 0.11 | G 0.014 ± 0.091 | T 0.185 ± 0.089 | I -0.004 ± 0.082 | Y -0.405 ± 0.19 | E 0.191 ± 0.33 | C -0.015 ± 0.1 | S 0.088 ± 0.067 | M -0.101 ± 0.26
W76: T -0.579 ± 0.1 | G -0.648 ± 0.079 | P -0.625 ± 0.13 | E -0.891 ± 0.14 | R -0.72 ± 0.075 | H -1.2 ± 0.38 | I -1.4 ± 0.5 | C -0.737 ± 0.19 | N -0.661 ± 0.27 | L -0.842 ± 0.12 | Y -0.456 ± 0.2 | M -0.678 ± 0.13 | F -0.482 ± 0.23 | V -0.565 ± 0.088 | K -0.709 ± 0.12 | Q -0.943 ± 0.17
P67: I -1.04 ± 0.28 | C -0.948 ± 0.21 | K -1.02 ± 0.22 | W -1.01 ± 0.17 | G -0.659 ± 0.085 | R -0.544 ± 0.074 | D -0.623 ± 0.15 | M -0.603 ± 0.13 | L -0.94 ± 0.13 | H -0.874 ± 0.34 | A -0.841 ± 0.12 | V -0.728 ± 0.097 | S -0.646 ± 0.094 | Q -0.676 ± 0.21 | F -0.657 ± 0.19 | E -0.432 ± 0.095 | Y -0.602 ± 0.18
C68: N -0.117 ± 0.073 | L 0.061 ± 0.074 | I -0.049 ± 0.071 | M -0.22 ± 0.13 | T 0.103 ± 0.079 | G -0.699 ± 0.1 | A -0.003 ± 0.087 | W -0.793 ± 0.23 | S 0.081 ± 0.051 | P -0.759 ± 0.21 | F -0.112 ± 0.071 | Q -0.189 ± 0.23 | R -0.875 ± 0.16 | E -0.645 ± 0.34 | D -0.624 ± 0.13 | H 0.143 ± 0.069
R72: W 0.139 ± 0.093 | A 0.163 ± 0.06 | I 0.269 ± 0.049 | H 0.183 ± 0.06 | P -1.04 ± 0.24 | M 0.2 ± 0.1 | N 0.029 ± 0.063 | D -0.272 ± 0.077 | C 0.222 ± 0.054 | K 0.102 ± 0.12 | T 0.318 ± 0.06 | G -0.416 ± 0.079 | Q 0.243 ± 0.12 | F 0.219 ± 0.052 | S 0.149 ± 0.046 | L 0.216 ± 0.05
F69: R -0.272 ± 0.073 | H 0.001 ± 0.076 | D -0.352 ± 0.087 | T -0.352 ± 0.1 | K -0.146 ± 0.12 | C -0.148 ± 0.062 | M -0.201 ± 0.11 | A -0.613 ± 0.12 | P -0.918 ± 0.26 | S -0.163 ± 0.057 | E -0.108 ± 0.17 | Q -0.423 ± 0.22 | N -0.361 ± 0.085 | W -0.191 ± 0.14 | Y 0.061 ± 0.076 | L -0.214 ± 0.07 | V -0.078 ± 0.053 | G -0.605 ± 0.089
A64: R -0.359 ± 0.052 | G -0.647 ± 0.067 | V -0.506 ± 0.068 | I -0.414 ± 0.26 | P -0.663 ± 0.12 | W -0.672 ± 0.11 | E -0.27 ± 0.077 | F -0.786 ± 0.23 | D -0.342 ± 0.14 | Y -0.894 ± 0.27 | N -0.523 ± 0.18 | L -0.904 ± 0.12 | Q -0.001 ± 0.075 | M -0.316 ± 0.08 | C -0.346 ± 0.12 | S -0.376 ± 0.071
V78: I -0.139 ± 0.067 | W -0.228 ± 0.12 | R -0.322 ± 0.1 | L -0.398 ± 0.093 | T -0.127 ± 0.084 | Q -0.486 ± 0.21 | C -0.131 ± 0.088 | N -0.585 ± 0.1 | S -0.587 ± 0.091 | F -0.162 ± 0.079 | Y 0.102 ± 0.069 | D -0.708 ± 0.13 | A -0.836 ± 0.25 | M -0.19 ± 0.16 | G -0.558 ± 0.1 | E -0.008 ± 0.099 | K -0.105 ± 0.12
V73: Y -0.909 ± 0.15 | W -0.589 ± 0.18 | E -0.786 ± 0.24 | R -0.592 ± 0.12 | H -0.573 ± 0.12 | C -0.347 ± 0.085 | L -0.56 ± 0.1 | G -0.681 ± 0.099 | D -0.501 ± 0.1 | I 0.147 ± 0.059 | F -0.684 ± 0.089 | M -0.767 ± 0.26 | A -0.511 ± 0.12 | S -0.618 ± 0.088 | Q -0.477 ± 0.46 | N -0.569 ± 0.11 | K -1.01 ± 0.3
G71: Y -0.64 ± 0.11 | F -0.725 ± 0.12 | A -0.782 ± 0.15 | V -0.888 ± 0.13 | Q -0.763 ± 0.38 | H -0.281 ± 0.12 | I -0.249 ± 0.098 | W -0.524 ± 0.21 | T -0.919 ± 0.19 | R -0.895 ± 0.15 | L -0.538 ± 0.1 | S -0.512 ± 0.087 | D -0.482 ± 0.11 | N -0.351 ± 0.086 | C -0.957 ± 0.16 | M -1.4 ± 0.48
N63: V -0.59 ± 0.075 | S -0.104 ± 0.054 | T -0.119 ± 0.061 | Y -0.33 ± 0.12 | Q -0.113 ± 0.069 | R -0.238 ± 0.042
S75: P -0.59 ± 0.16 | F -0.793 ± 0.12 | I -0.459 ± 0.089 | W -0.603 ± 0.21 | C 0.099 ± 0.05 | E -0.782 ± 0.22 | T -0.519 ± 0.11 | D -0.723 ± 0.11 | M -0.726 ± 0.2 | K -0.967 ± 0.29 | H -0.6 ± 0.15 | V -0.161 ± 0.058 | R -0.606 ± 0.1 | G -0.221 ± 0.063 | N -0.899 ± 0.12 | L -0.463 ± 0.093 | Y -0.669 ± 0.1
L77: T -0.243 ± 0.099 | A -1.11 ± 0.2 | M -0.395 ± 0.21 | E -0.915 ± 0.24 | D -0.471 ± 0.1 | G -0.572 ± 0.11 | C -0.29 ± 0.081 | F -0.855 ± 0.14 | S -0.831 ± 0.11 | R -0.903 ± 0.14 | H -0.536 ± 0.18 | Y -0.911 ± 0.14 | P -0.929 ± 0.28 | N -0.751 ± 0.12 | I -0.358 ± 0.088 | K -0.261 ± 0.13 | V -0.064 ± 0.065
S79: W -0.71 ± 0.11 | C -0.228 ± 0.083 | M -0.556 ± 0.1 | T -0.179 ± 0.071 | K -0.204 ± 0.076 | A -0.206 ± 0.062 | P 0.16 ± 0.069 | R -0.31 ± 0.055 | H -0.466 ± 0.16 | E 0.002 ± 0.056 | Q -0.248 ± 0.098 | F -0.504 ± 0.16 | I -0.652 ± 0.27 | Y -0.864 ± 0.18 | G -0.287 ± 0.054 | L -0.67 ± 0.092 | V -0.682 ± 0.087 | D 0.079 ± 0.065
N70: E -0.001 ± 0.1 | W -0.634 ± 0.23 | A -0.602 ± 0.12 | C -0.467 ± 0.097 | Y -0.915 ± 0.15 | T -0.466 ± 0.11 | R -0.249 ± 0.077 | P -0.628 ± 0.14 | M -0.374 ± 0.17 | K 0.002 ± 0.12 | D 0.009 ± 0.065 | Q -0.341 ± 0.19 | L -0.757 ± 0.13 | S -0.568 ± 0.083 | V -0.593 ± 0.077 | F -0.449 ± 0.077 | H -0.165 ± 0.08
